The values that follow come from US20130136743A1 (LABORATOIRE FRANCAIS DU FRACTIONNEMENT ET DES …, published 2013).

Test [1] addresses T1, AMHR-II/Fc fusion protein (human, UniProt Q16671 18-149, limits assumed).
T1 construct: also called AMHR-II recombinant receptor expressed in the form of fusion protein with a region Fc; recombinant target; not shown: Fc region
Briefly: direct phage ELISA, ratio of specific binding; 3.00E+09 phages per well as printed.

The target of test [2] is T1, AMHR-II/Fc fusion protein. Briefly: direct phage ELISA, ratio of specific binding; 3.00E+10 phages per well as printed.
Test [3] addresses T1, AMHR-II/Fc fusion protein. Briefly: direct phage ELISA, target coated at 500 ng/well; 3.00E+09 phages per well as printed.
The target in test [4] is T1, AMHR-II/Fc fusion protein. Description: direct phage ELISA, target coated at 500 ng/well; 3.00E+10 phages per well as printed.
The target of test [5] is T1, AMHR-II/Fc fusion protein. Briefly: direct phage ELISA, ratio of specific binding; 3.00E+09 phages per well as printed (third row).
In test [6] the target is T1, AMHR-II/Fc fusion protein. Briefly: direct phage ELISA, ratio of specific binding; 3.00E+09 phages per well as printed (second row).
In test [7] the target is T1, AMHR-II/Fc fusion protein. Briefly: direct phage ELISA, ratio of specific binding; 3.00E+10 phages per well as printed (second row).
For test [8], the target named is T1, AMHR-II/Fc fusion protein. Description: direct phage ELISA, target coated at 500 ng/well; 3.00E+09 phages per well as printed (third row).
For test [9], the target named is T1, AMHR-II/Fc fusion protein. Briefly: direct phage ELISA, target coated at 500 ng/well; 3.00E+09 phages per well as printed (second row).
The target in test [10] is T1, AMHR-II/Fc fusion protein. Briefly: direct phage ELISA, target coated at 500 ng/well; 3.00E+10 phages per well as printed (second row).
The target in test [11] is T1, AMHR-II/Fc fusion protein. Briefly: SPR, BIAcore X100; AMHR-II/Fc immobilised on CM5 chip, antibody injected; 25 C. On the procedure:
The affinity of the antibodies for their antigen, AMHR-II, is determined by the SPR (Surface Plasmon Resonance) technique on BIACore X100 (BIACore, GE Healthcare). The AMHR-II recombinant receptor, expressed in the form of fusion protein with a region Fc, is immobilized by covalent coupling between its amine functions and the carboxyl groups of dextran activated in succinimide esters, present on the surface of the type CM5 sensor chip. The COOH groups of the sensor chip are activated for 7 minutes with EDC/NHS mixture (0.1 M of N-hydroxysuccinimide and 0.1 M of 3-(N,N-dimethylamino)propyl-N-ethylcarbodiimide) at a flow of 10 μl/min then the AMHR-II/Fc fusion protein, diluted to 5 μg/ml in 10 mM sodium acetate buffer, pH 4.0, is injected at […] on track 2 of the sensor chip so as to reach 300 RU. The ester groups that have not reacted with the amines of the fusion protein are deactivated by injection of a solution of ethanolamine-HCl 1M, pH 8.5 for 7 min at a flow of 10 μl:min. Track 1, serving as negative control, was activated and deactivated like track 2.
All the measurements are carried out at 25° C. The antibodies to be analysed are diluted in HBS-EP running buffer (BIACore, GE Healthcare) at concentrations from 6.25 to 3333 nM and injected on the sensor chip for 2 min at a flow of 30 μl/min. The dissociation step is monitored for 10 min and then the surface is regenerated by injection of 10 mM glycine buffer, pH 1.5 for 30 s at 10 μl/min.
The sensorgrams obtained are analysed using the 1:2 kinetic model of the BIAevaluation 3.1 software.

In test [12] the target is T2, Epitope peptide GGGGNLTQDRAQVEMQGSR
T2 peptide: GGGGNLTQDRAQVEMQGSR
Description: method not stated; Example 2, heading names cov434-AMHR-II cells and the epitope peptide.

A further test has as its target T3, AMHR-II human receptor (human, UniProt Q16671 18-573, limits assumed).
T3 sequence (looked up): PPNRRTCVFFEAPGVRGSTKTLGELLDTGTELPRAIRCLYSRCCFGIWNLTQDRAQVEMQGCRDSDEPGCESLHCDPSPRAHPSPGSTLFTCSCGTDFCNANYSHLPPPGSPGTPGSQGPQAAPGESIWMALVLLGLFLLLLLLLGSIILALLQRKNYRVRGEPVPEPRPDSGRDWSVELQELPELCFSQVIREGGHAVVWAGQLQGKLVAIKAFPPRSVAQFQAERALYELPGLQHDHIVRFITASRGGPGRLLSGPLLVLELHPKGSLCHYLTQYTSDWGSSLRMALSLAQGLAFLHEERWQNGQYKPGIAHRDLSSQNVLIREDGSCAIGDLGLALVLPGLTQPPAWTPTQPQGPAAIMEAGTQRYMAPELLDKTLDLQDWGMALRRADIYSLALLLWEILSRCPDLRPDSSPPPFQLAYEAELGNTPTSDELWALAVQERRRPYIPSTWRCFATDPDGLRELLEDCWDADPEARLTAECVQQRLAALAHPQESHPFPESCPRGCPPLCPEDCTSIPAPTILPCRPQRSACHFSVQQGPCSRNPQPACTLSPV
Briefly: method not stated; determined on the AMHR-II human receptor; determined on the AMHR-II human receptor (table footnote), apart from the tabulated 2.35 × 10^-7M.

B1: mVH-VL, murine antibody mLFB112 expressed as scFv on phage (scFv, part only; not given: scFv linker, part only)
scFv, part: QVQLQQSGPELVKPGASVRMSCKASGYTFTSYHIHWVKQRPGQGLEWIGWIYPGDDSTKYNEKFKGKTTLTADKSSSTAYMLLSSLTSEDSAIYFCTRGDRFAYWGQGTLVTVSAQIVLTQSPAIMSASLGEGITLTCSASSSVRYIHWYQQKSGTSPKLLIYSTSNLASGVPSRFSGSGSGTFHSLTISSVEAEDAADYYCLQWSSYPWTFGGGTKLEIK
Consider B1, for which the Ratio mVH-VL/huVH-VL in test [1] was determined as 4.7; in [2] it was 2.4; in test [5] it was 5.2; in [6], 5.2; in test [7] it was 3.6. Further, the OD 450 nm, +covering in [3] was 1.57 OD; in test [4], 2.81 OD; in test [8], 0.495 OD; in test [9] it was 0.946 OD; in test [10] it was 2.19 OD. Moreover, the OD 450 nm, Diff (specific binding) worked out at 1.51 OD in test [3]; 2.65 OD in test [4]; 0.446 OD in test [8]; 0.887 OD in test [9]; 2.11 OD in test [10].

B2: chimeric 12G4 monoclonal antibody (antibody, V domains shown)
VH: QVQLQQSGPELVKPGASVRMSCKASGYTFTSYHIHWVKQRPGQGLEWIGWIYPGDDSTKYNEKFKGKTTLTADKSSSTAYMLLSSLTSEDSAIYFCTRGDRFAYWGQGTLVTVSA
VL: QIVLTQSPAIMSASLGEGITLTCSASSSVRYIHWYQQKSGTSPKLLIYSTSNLASGVPSRFSGSGSGTFHSLTISSVEAEDAADYYCLQWSSYPWTFGGGTKLEIKR
notes: Variable regions without leader joined to the human constant regions; also called 12G4-Chimeric; unmutated chimeric 12G4 antibody
In test [11], B2 yielded a Kd of 212 nM, a koff of 0.00074 s⁻¹ and a kon of 3500 M⁻¹ s⁻¹. Further, in test [12], the Kd was 235 nM, the koff was 0.00153 s⁻¹ and the kon was found to be 6490 M⁻¹ s⁻¹. In the test with AMHR-II human receptor, this molecule yielded a Kd of roughly 10 nM.
